Our source for the % inhibition values is US20080274977A1.

Experiment [1] addresses N-type calcium channel (receptor binding screen of Example 1).
For experiment [2], the target named is T1, chemokine CXCR2 (IL-8Rb), P25025.
T1 chain: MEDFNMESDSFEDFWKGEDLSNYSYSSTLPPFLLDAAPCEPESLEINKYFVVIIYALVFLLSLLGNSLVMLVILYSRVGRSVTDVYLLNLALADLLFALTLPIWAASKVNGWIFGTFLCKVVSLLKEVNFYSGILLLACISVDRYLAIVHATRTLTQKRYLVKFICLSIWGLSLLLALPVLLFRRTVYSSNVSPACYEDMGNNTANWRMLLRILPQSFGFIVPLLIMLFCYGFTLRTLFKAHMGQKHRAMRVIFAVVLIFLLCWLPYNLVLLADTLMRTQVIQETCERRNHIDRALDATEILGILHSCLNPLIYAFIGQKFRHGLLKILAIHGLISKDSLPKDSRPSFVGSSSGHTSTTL

In general, % inhibition refers to the percentage by which the read-out fell short of the control. On to Tat-NR2B9c (peptide), for which the % inhibition in experiment [1] amounted to 100%. YGRKKRRQRRRKLSSIESDV (modifications not checked) [Tat-NR2B9c]: the % inhibition in experiment [2] worked out at 80%.
